Results on five sequences are retold here after the supplement of paper PMC5998384.

The subject of data set [1] is HeLa Kyoto. In words: solubility in G1/S (NP-40 vs SDS abundance) (log2 ratio); higher = more soluble. The conditions noted are these: cell cycle stage: G1/S.
Data set [2] has as its system HeLa Kyoto. Briefly: thermal stability score vs G1/S (z-score of summed log2 fold changes over temperatures); higher = more thermally stable than in G1/S.
The subject of data set [3] is HeLa Kyoto. In words: solubility change mitosis vs G1/S (difference of NP-40 vs SDS log2 ratios) (log2 ratio difference); higher = more soluble in mitosis.
Data set [4] has as its system HeLa Kyoto. In words: melting temperature (median over replicates), in situ; higher = more thermally stable.
Where [5] appears, read: cell cycle stage: early G1 (4.5 h after nocodazole release).
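Wherever melting temperature (median over replicates), in situ is given: HeLa Kyoto cells synchronized by double thymidine or nocodazole block, proteins quantified by TMT10plex mass spectrometry, three independent biological replicates.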
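Wherever solubility change mitosis vs G1/S (difference of NP-40 vs SDS log2 ratios) is given: synchronized HeLa Kyoto cells (double thymidine block for G1/S, nocodazole release for mitosis), protein amounts in NP-40 versus SDS lysates quantified by mass spectrometry, three biological replicates.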
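Wherever solubility in G1/S (NP-40 vs SDS abundance) is given: HeLa Kyoto cells arrested at G1/S by double thymidine block, proteins quantified by TMT10plex mass spectrometry in mild NP-40 versus SDS extracts, three biological replicates.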
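Wherever thermal stability score vs G1/S (z-score of summed log2 fold changes over temperatures) is given: synchronized HeLa Kyoto cells, proteins quantified by TMT10plex mass spectrometry, three biological replicates, mitosis taken 0.5 h after nocodazole release, G1/S directly after double thymidine block.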

Regarding “MRFLAATFLLLALSTAAQAEPVQFKDCGSVDGVIKEVNVSPCPTQPCQLSKGQSYSVNVTFTSNIQSKSSKAVVHGILMGVPVPFPIPEPDGCKSGINCPIQKDKTYSYLNKLPVKSEYPSIKLVVEWQLQDDKNQSLFCWEIPVQIVSHL [NPC2]”, the “solubility in G1/S (log2)” value in the data set with HeLa Kyoto [1] was 0.123. In addition, the thermal stability score in the data set on HeLa Kyoto [2] (setting [5]) is -3.22; in the data set on HeLa Kyoto [2] (cell cycle stage: mitosis), -2.19. Further, the “solubility change mitosis (log2)” value in the data set with HeLa Kyoto [3] is 0.0342. Moreover, the melting temperature with HeLa Kyoto [4] (cell cycle stage: G1/S) was 58.9 °C; in the data set on HeLa Kyoto [4] (cell cycle stage: mitosis), 53.4 °C.

With “MRGAMELEPELLLQEARENVEAAQSYRRELGHRLEGLREARRQIKESASQTRDVLKQHFNDLKGTLGKLLDERLVTLLQEVDTIEQETIKPLDDCQKLIEHGVNTAEDLVREGEIAMLGGVGEENEKLWSFTKKASHIQLDSLPEVPLLVDVPCLSAQLDDSILNIVKDHIFKHGTVASRPPVQIEELIEKPGGIIVRWCKVDDDFTAQDYRLQFRKCTSNHFEDVYVGSETEFIVLHIDPNVDYQFRVCARGDGRQEWSPWSVPQIGHSTLVPHEWTAGFEGYSLSSRRNIALRNDSESSGVLYSRAPTYFCGQTLTFRVETVGQPDRRDSIGVCAEKQDGYDSLQRDQAVCISTNGAVFVNGKEMTNQLPAVTSGSTVTFDIEAVTLGTTSNNEGGHFKLRVTISSNNREVVFDWLLDQSCGSLYFGCSFFYPGWKVLVF [CRLF3]”, in the data set with HeLa Kyoto [1], the “solubility in G1/S (log2)” value is -0.117. In addition, the thermal stability score with HeLa Kyoto [2] (setting [5]) is -0.0259; in the data set with HeLa Kyoto [2] (cell cycle stage: mitosis) it was -0.0234. For the same sequence, the “solubility change mitosis (log2)” value in the data set with HeLa Kyoto [3] was -0.13. Besides, the melting temperature was determined as 50 °C in the data set on HeLa Kyoto [4] (cell cycle stage: G1/S) and 49.7 °C in the data set with HeLa Kyoto [4] (cell cycle stage: mitosis).

On to “MRGVWPPPVSALLSALGMSTYKRATLDEEDLVDSLSEGDAYPNGLQVNFHSPRSGQRCWAARTQVEKRLVVLVVLLAAGLVACLAALGIQYQTRSPSVCLSEACVSVTSSILSSMDPTVDPCHDFFSYACGGWIKANPVPDGHSRWGTFSNLWEHNQAIIKHLLENSTASVSEAERKAQVYYRACMNETRIEELRAKPLMELIERLGGWNITGPWAKDNFQDTLQVVTAHYRTSPFFSVYVSADSKNSNSNVIQVDQSGLGLPSRDYYLNKTENEKVLTGYLNYMVQLGKLLGGGDEEAIRPQMQQILDFETALANITIPQEKRRDEELIYHKVTAAELQTLAPAINWLPFLNTIFYPVEINESEPIVVYDKEYLEQISTLINTTDRCLLNNYMIWNLVRKTSSFLDQRFQDADEKFMEVMYGTKKTCLPRWKFCVSDTENNLGFALGPMFVKATFAEDSKSIATEIILEIKKAFEESLSTLKWMDEETRKSAKEKADAIYNMIGYPNFIMDPKELDKVFNDYTAVPDLYFENAMRFFNFSWRVTADQLRKAPNRDQWSMTPPMVNAYYSPTKNEIVFPAGILQAPFYTRSSPKALNFGGIGVVVGHELTHAFDDQGREYDKDGNLRPWWKNSSVEAFKRQTECMVEQYSNYSVNGEPVNGRHTLGENIADNGGLKAAYRAYQNWVKKNGAEHSLPTLGLTNNQLFFLGFAQVWCSVRTPESSHEGLITDPHSPSRFRVIGSLSNSKEFSEHFRCPPGSPMNPPHKCEVW [ECE1]”, for which the “solubility in G1/S (log2)” value in the data set on HeLa Kyoto [1] turned out to be 0.243. For the same sequence, the thermal stability score in the data set with HeLa Kyoto [2] (setting [5]) is -1.05; in the data set on HeLa Kyoto [2] (cell cycle stage: mitosis), -0.159. Also, in the data set with HeLa Kyoto [3], the “solubility change mitosis (log2)” value was -0.00992. The melting temperature with HeLa Kyoto [4] (cell cycle stage: G1/S) was found to be 56.1 °C; in the data set on HeLa Kyoto [4] (cell cycle stage: mitosis), 55.2 °C.

With “MRHLPYFCRGQVVRGFGRGSKQLGIPTANFPEQVVDNLPADISTGIYYGWASVGSGDVHKMVVSIGWNPYYKNTKKSMETHIMHTFKEDFYGEILNVAIVGYLRPEKNFDSLESLISAIQGDIEEAKKRLELPEHLKIKEDNFFQVSKSKIMNGH [RFK]”, the “solubility in G1/S (log2)” value in the data set on HeLa Kyoto [1] was found to be 0.518. The thermal stability score with HeLa Kyoto [2] (setting [5]) is 0.0986; in the data set on HeLa Kyoto [2] (cell cycle stage: mitosis) it was -0.44. For the same sequence, the “solubility change mitosis (log2)” value in the data set on HeLa Kyoto [3] was -0.114. Besides, the melting temperature with HeLa Kyoto [4] (cell cycle stage: G1/S) worked out at 52.7 °C; in the data set with HeLa Kyoto [4] (cell cycle stage: mitosis), 54.1 °C.

On to “MRKGVLKDPEIADLFYKDDPEELFIGLHEIGHGSFGAVYFATNAHTSEVVAIKKMSYSGKQTHEKWQDILKEVKFLRQLKHPNTIEYKGCYLKEHTAWLVMEYCLGSASDLLEVHKKPLQEVEIAAITHGALHGLAYLHSHALIHRDIKAGNILLTEPGQVKLADFGSASMASPANSFVGTPYWMAPEVILAMDEGQYDGKVDIWSLGITCIELAERKPPLFNMNAMSALYHIAQNDSPTLQSNEWTDSFRRFVDYCLQKIPQERPTSAELLRHDFVRRDRPLRVLIDLIQRTKDAVRELDNLQYRKMKKILFQETRNGPLNESQEDEEDSEHGTSLNREMDSLGSNHSIPSMSVSTGSQSSSVNSMQEVMDESSSELVMMHDDESTINSSSSVVHKKDHVFIRDEAGHGDPRPEPRPTQSVQSQALHYRNRERFATIKSASLVTRQIHEHEQENELREQMSGYKRMRRQHQKQLIALENKLKAEMDEHRLKLQKEVETHANNSSIELEKLAKKQVAIIEKEAKVAAADEKKFQQQILAQQKKDLTTFLESQKKQYKICKEKIKEEMNEDHSTPKKEKQERISKHKENLQHTQAEEEAHLLTQQRLYYDKNCRFFKRKIMIKRHEVEQQNIREELNKKRTQKEMEHAMLIRHDESTRELEYRQLHTLQKLRMDLIRLQHQTELENQLEYNKRRERELHRKHVMELRQQPKNLKAMEMQIKKQFQDTCKVQTKQYKALKNHQLEVTPKNEHKTILKTLKDEQTRKLAILAEQYEQSINEMMASQALRLDEAQEAECQALRLQLQQEMELLNAYQSKIKMQTEAQHERELQKLEQRVSLRRAHLEQKIEEELAALQKERSERIKNLLERQEREIETFDMESLRMGFGNLVTLDFPKEDYR [TAOK3]”, for which the “solubility in G1/S (log2)” value with HeLa Kyoto [1] is -0.118. Besides, the thermal stability score in the data set on HeLa Kyoto [2] (setting [5]) was -0.159; in the data set with HeLa Kyoto [2] (cell cycle stage: mitosis) it was -0.329. Moreover, in the data set on HeLa Kyoto [3], the “solubility change mitosis (log2)” value was -0.0814. The melting temperature with HeLa Kyoto [4] (cell cycle stage: G1/S) was determined as 50.9 °C; with HeLa Kyoto [4] (cell cycle stage: mitosis), 50.5 °C.
